Experimental findings from patent publication US20110269938A1 (COMMONWEALTH SCIENTIFIC AND INDUSTRIAL RESEARCH ORGANISATION, published 2011) are described below.

Series [1] deals with the molecule itself. The series is described as follows: Western blot of periplasmic fraction, self-association. (In western blotting, separated proteins are transferred to a membrane and probed.)
Series [2] concerns the molecule itself. The series can be described thus: self-association of familial mutation variants.
Series [3] deals with the molecule itself. The series can be described thus: Western blot of periplasmic fraction (self-association).

B1: Aβ-IgNAR-G3 (VNAR)
VNAR: AWVDQTPRTATKETGESLTINCVLRDASFELKDTGWYRTKLGSTNEQSISIGGRYVETVNKGSKSFSLRISDLRVEDSGTYKCQAFYGLVFFAEDVGSNKGAIIGLMVGGVVIAGGGEKGAGTALTVKA
notes: No crystals obtained; also called 37A-1; glycine-3 version
In the case of B1, in series [1], the binding result is on record as “binds”.

B2: Aβ-IgNAR 37F-2 (Asp23Asn) (VNAR)
VNAR: AWVDQTPRTATKETGESLTINCVLRDASFELKDTGWYRTKLGSTNEQSISIGGRYVETVNKGSKSFSLRISDLRVEDSGTYKCQAFYVFFAENVGSNKGAIIGLMVGGVVIGGEKGAGTALTVKA
notes: also called familial mutant Asp23Asn
Regarding B2, in series [2], the binding result is on record as “binds”.

B3: Aβ-IgNAR 37L-2 (Ala21Gly) (VNAR)
VNAR: AWVDQTPRTATKETGESLTINCVLRDASFELKDTGWYRTKLGSTNEQSISIGGRYVETVNKGSKSFSLRISDLRVEDSGTYKCQAFYVFFGEDVGSNKGAIIGLMVGGVVIGGEKGAGTALTVKA
notes: also called familial mutant Ala21Gly
Regarding B3, the binding result in series [2] is “binds”.

B4: Aβ-IgNAR 37K-1 (Glu22Gln) (VNAR)
VNAR: AWVDQTPRTATKETGESLTINCVLRDASFELKDTGWYRTKLGSTNEQSISIGGRYVETVNKGSKSFSLRISDLRVEDSGTYKCQAFYVFFAQDVGSNKGAIIGLMVGGVVIGGEKGAGTALTVKA
notes: also called familial mutant Glu22Gln
For B4, the binding result in series [2] is “binds”.

B5: Aβ-IgNAR 37R-1 (ΔGlu22) (VNAR)
VNAR: AWVDQTPRTATKETGESLTINCVLRDASFELKDTGWYRTKLGSTNEQSISIGGRYVETVNKGSKSFSLRISDLRVEDSGTYKCQAFYVFFADVGSNKGAIIGLMVGGVVIGGEKGAGTALTVKA
notes: also called familial mutant ΔGlu22
Consider B5, for which the binding result in series [2] is recorded as “binds”.

B6: Aβ-IgNAR-G6 (VNAR)
VNAR: AWVDQTPRTATKETGESLTINCVLRDASFELKDTGWYRTKLGSTNEQSISIGGRYVETVNKGSKSFSLRISDLRVEDSGTYKCQAFYGGGLVFFAEDVGSNKGAIIGLMVGGVVIAGGGGEKGAGTALTVKA
notes: No crystals obtained; also called 37Q-6; glycine-6 version
On to B6, for which the binding result in series [1] is listed as “binds”.

B7: IgNAR single variable domain antibody 12Y-2 (VNAR)
VNAR: AWVDQTPRTATKETGESLTINCVLRDASFELKDTGWYRTKLGSTNEQSISIGGRYVETVNKGSKSFSLRISDLRVEDSGTYKCQAFYSLPLGDYNYSLLFRGEKGAGTALTVKA
notes: Scaffold without Aβ insert, used as the monomeric control; also called IgNAR wt; wild type IgNAR
For B7, the binding result in series [3] is reported as “no binding”.
